Source: patent US20020157126A1 (published 2002)

Tests used:
[1] = molecular target: T1, myostatin mature C-terminal dimer (purified from conditioned medium of CHO cells) (UniProt O08689 268-376, limits assumed, radio-iodinated (chloramine T method) when used as the labeled ligand); test: inhibition of labeled myostatin binding to Act RIIB-transfected COS-7 cells, 4 °C; reference is the Ki of follistatin
T1 construct: mature; also called GDF-8; mature C-terminal peptide
T1 sequence (looked up): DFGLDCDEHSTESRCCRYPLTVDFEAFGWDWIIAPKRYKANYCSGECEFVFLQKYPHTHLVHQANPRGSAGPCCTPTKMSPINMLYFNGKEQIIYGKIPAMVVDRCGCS

[2] = molecular target: GDF-8 receptor (cell surface binding proteins) on L6 myoblasts; test: receptor-ligand binding assay with I-125 labeled GDF-8 on myoblast cells
[3] = molecular target: T1, myostatin mature C-terminal dimer …; test: inhibition of labeled myostatin binding to Act RIIB-transfected COS-7 cells, 4 °C
Method: Receptor binding. Purified myostatin was radioiodinated using the chloramine T method (Frolik, C. A., Wakefield, L. M., Smith, D. M. & Sporn, M. B. (1984) J Biol Chem 259, 10995-11000). COS-7 cells grown in 6 or 12 well plates were transfected with 1-2 μg pCMV5 or pCMV5/receptor construct using lipofectamine (Gibco, Rockville, Md.). Crosslinking experiments were carried out 2 days post transfection as described (Franzén, P., ten Dijke, P., Ichijo, H., Yamashita, H., Schultz, P., Heldin, C.-H. & Miyazono, K. (1993) Cell 75, 681-692). For quantitative receptor binding assays, cell monolayers were washed twice with PBS containing 1 mg/ml BSA and incubated with labeled myostatin in the presence or absence of various concentrations of unlabeled myostatin, pro peptide, or follistatin at 4° C. Cells were then washed 3 times with the same buffer, lysed in 0.5N NaOH, and counted in a gamma counter. Specific binding was calculated as the difference in bound myostatin between cells transfected with Act RIIB and cells transfected with vector.
The effect of the pro peptide and follistatin in vitro was then studied. Both the myostatin pro peptide and follistatin were capable of blocking the binding of the C-terminal dimer to Act RIIB. […]

For “myostatin prodomain peptide (purified from CHO cell conditioned medium, HPLC fractions 35-37) (from UniProt O08689 25-267)”, the fold Ki relative to follistatin [1] was 50 fold.

Work on “recombinant human GDF-8 (rhGDF-8) homodimer (from UniProt O14793 267-374) (ligand)” yielded a Kd [2] of 0.37 nM.

B1: follistatin (other, UniProt P19883-2 30-317, looked up)
chain: GNCWLRQAKNGRCQVLYKTELSKEECCSTGRLSTSWTEEDVNDNTLFKWMIFNGGAPNCIPCKETCENVDCGPGKKCRMNKKNKPRCVCAPDCSNITWKGPVCGLDGKTYRNECALLKARCKEQPELEVQYQGRCKKTCRDVFCPGSSTCVVDQTNNAYCVTCNRICPEPASSEQYLCGNDGVTYSSACHLRKATCLLGRSIGLAYEGKCIKAKSCEDIQCTGGKKCLWDFKVGRGRCSLCDELCPDSKSDEPVCASDNATYASECAMKEAACSSGVLLEVKHSGSCN
B1 gave a Ki [3] of roughly 0.47 nM.
